Experimental data: article PMC8749410

Key:
[1] = target: human recombinant complement receptor 3 (integrin αMβ2, CD11b/CD18) (human) (UniProt P11215); assay: SPR; Biacore S200; HIV virions flowed over immobilised rI-domain or rCR3; blank ethanolamine reference flow cell; mean Kd ± SD from a minimum of two technical repeats on each of two flow cells
[2] = target: human recombinant I-domain of the CR3 alpha subunit CD11b (human); assay: as above
[3] = target: complement receptor 3 (CD11b/CD18) on primary human cervical epithelial (Pex) cells (human (endogenous in Pex cells)) (UniProt P11215); assay: fluorometric adherence assay on cells; virions 10 ng/mL p24 equivalent, 2 h on CHO or Pex cells; cells fixed, HIV immunolabelled (goat polyclonal LS-C103187, FITC secondary) and quantified against a standard curve of virus
[4] = target: complement receptor 3 (CD11b/CD18) on primary human cervical epithelial (Pex) cells (human (endogenous in Pex cells)) (UniProt P11215)
[5] = target: human complement receptor 3 (CD11b/CD18) on CHO-CR3 cells (human) (UniProt P11215); assay: fluorometric adherence assay on cells; virions 10 ng/mL p24 equivalent, 2 h on CHO or Pex cells; cells fixed, HIV immunolabelled (goat polyclonal LS-C103187, FITC secondary) and quantified against a standard curve of virus

Work on “HIV-1 strain NL4-3 AD8 virions produced in HEK293T cells (envelope glycoprotein gp120/gp41 on the virion surface) (complex)” yielded a Kd [1] of 337 nM, a Kd [2] of 239 nM and an adherent virus (p24 HIV equivalent) [3] of 1.01 ng/mL. It also gave a percent of the inoculum adherent [3] of 10%.

Work on “HIV-1 strain NL4-3 virions produced in HEK293T cells (envelope glycoprotein gp120/gp41 on the virion surface) (complex)” yielded a Kd [1] of 192 nM and a Kd [2] of 90.9 nM.

“HIV-1 transmitted founder strain REJO virions produced in HEK293T cells (envelope glycoprotein gp120/gp41 on the virion surface) (complex)” was tested, and the Kd [1] was 90.3 nM and the Kd [2] was 265 nM.

In the case of “HIV-1 transmitted founder strain RHPA virions produced in HEK293T cells (envelope glycoprotein gp120/gp41 on the virion surface) (complex)”, the Kd [1] is reported as 249 nM and the Kd [2] is reported as 912 nM.

In the case of “HIV-1 transmitted founder strain WITO virions produced in HEK293T cells (envelope glycoprotein gp120/gp41 on the virion surface) (complex)”, the Kd [1] is reported as 242 nM, the Kd [2] is reported as 298 nM and the HIV-1 transcytosis across a polarized Pex cell monolayer in Transwells, no competimer; HIV p24 in the basal chamber as percent of the inoculum (10 ng/mL p24 equivalent) [4] is reported as 4%.

“HIV-1 transmitted founder strain WITO virions propagated in primary human PBMCs (envelope glycoprotein gp120/gp41 on the virion surface) (complex)” showed a Kd [1] of 10.6 nM and a Kd [2] of 7.92 nM.

Work on “HIV-1 transmitted founder strain WITO virions, producer cells not stated (envelope glycoprotein gp120/gp41 on the virion surface) (complex)” yielded an adherent virus (p24 HIV equivalent) [5] of 2.4 ng/mL, a percent of the inoculum adherent [5] of 24% and an adherent virus (p24 HIV equivalent) [3] of 1.35 ng/mL. For the same substance, the percent of the inoculum adherent [3] was 13%.
